Assay [1] concerns the target γ-tubulin-containing complexes (complete and incomplete γ-TuRC) purified using GCP3–GFP–SII (human (endogenous in HEK293T)) (UniProt Q96CW5). Put plainly: single-molecule colocalisation by TIRF microscopy; γ-TuC–GFP held on the coverslip by biotinylated anti-GFP nanobody; with free tubulin (17.5 µM, 50 mM KCl, 30 °C); the sentence does not tell whether the NPF was premixed.

Assay [2] has the same target. Briefly: single-molecule colocalisation by TIRF microscopy; NPF pre-incubated with γ-TuC–GFP in solution ('Premix'), then held on the coverslip by biotinylated anti-GFP nanobody; with 17.5 µM tubulin, 50 mM KCl, MRB80, 30 °C.
For assay [3] the target is unchanged. Put plainly: single-molecule colocalisation by TIRF microscopy; NPF pre-incubated with γ-TuC–GFP or GFP control ('Premix'), then held on the coverslip by biotinylated anti-GFP nanobody; without tubulin.
Assay [4] has the same target.
Assay [5] deals with porcine brain tubulin (microtubules) (porcine).
The target is the same in assay [6]. Briefly: in vitro reconstitution with TIRF microscopy; microtubules nucleated from and anchored at γ-TuC (GCP3–GFP) held by anti-GFP nanobody; 25 µM tubulin, 80 mM KCl, MRB80, 30 °C; 5 nM SNAP–AF647–CAMSAP3, 5 nM SNAP–AF647–CAMSAP1 or 40 nM mCherry–CAMSAP2; scored over 10 min.
For assay [7] the target is unchanged. Described as above. This is another data set of the same source.
Assay [8] has as its target γ-tubulin-containing complexes (complete and incomplete γ-TuRC) purified using GCP3–GFP–SII (human (endogenous in HEK293T)) (UniProt Q96CW5). Briefly: single-molecule colocalisation by TIRF microscopy; γ-TuC–GFP held on the coverslip by biotinylated anti-GFP nanobody; with free tubulin (17.5 µM, 50 mM KCl, 30 °C); the sentence does not tell whether the NPF was premixed. This is another data set of the same source.

For assay [9] the target is unchanged. Put plainly: single-molecule colocalisation by TIRF microscopy; NPF pre-incubated with γ-TuC–GFP or GFP control ('Premix'), then held on the coverslip by biotinylated anti-GFP nanobody; without tubulin. This is another data set of the same source.

The record followed here is paper PMC10940162.

Like-named read-outs stand apart in the source and are kept apart here.

UniProt Q96CW5, sequence (Q96CW5 whole entry, looked up, one chain of several): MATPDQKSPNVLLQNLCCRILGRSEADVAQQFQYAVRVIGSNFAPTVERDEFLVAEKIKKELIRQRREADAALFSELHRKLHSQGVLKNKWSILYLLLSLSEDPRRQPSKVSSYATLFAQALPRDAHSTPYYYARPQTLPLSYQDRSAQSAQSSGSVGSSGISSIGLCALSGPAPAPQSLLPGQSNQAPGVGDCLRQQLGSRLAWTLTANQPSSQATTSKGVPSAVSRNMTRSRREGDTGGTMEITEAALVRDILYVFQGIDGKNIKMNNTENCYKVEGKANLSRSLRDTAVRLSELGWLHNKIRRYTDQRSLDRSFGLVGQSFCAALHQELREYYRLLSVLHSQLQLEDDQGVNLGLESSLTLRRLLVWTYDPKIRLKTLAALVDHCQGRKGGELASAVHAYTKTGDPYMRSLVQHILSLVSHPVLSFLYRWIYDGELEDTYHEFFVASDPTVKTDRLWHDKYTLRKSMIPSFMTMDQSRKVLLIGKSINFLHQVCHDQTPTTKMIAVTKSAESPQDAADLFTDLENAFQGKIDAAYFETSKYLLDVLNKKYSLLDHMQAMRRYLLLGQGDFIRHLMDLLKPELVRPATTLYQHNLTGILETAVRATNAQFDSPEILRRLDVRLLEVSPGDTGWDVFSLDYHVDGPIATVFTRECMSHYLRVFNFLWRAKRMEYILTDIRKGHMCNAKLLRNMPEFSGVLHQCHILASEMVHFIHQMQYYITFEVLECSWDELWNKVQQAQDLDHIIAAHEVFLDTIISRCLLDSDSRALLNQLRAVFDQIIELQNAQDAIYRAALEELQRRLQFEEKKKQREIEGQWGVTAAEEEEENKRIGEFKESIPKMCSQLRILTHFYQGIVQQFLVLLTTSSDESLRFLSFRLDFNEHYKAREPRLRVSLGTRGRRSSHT

As to “mCherry–CDK5RAP2 (from UniProt Q96SN8 1-1893) (natural protein)”, the percent of CDK5RAP2-positive puncta colocalizing with γ-TuCs in assay [1] came to 13%; in assay [3], 41%. Moreover, the percent of γ-TuCs colocalizing with CDK5RAP2 in [2] was 38%; in [3], 30%. Moreover, the microtubule nucleation efficiency of γ-TuC (percent of γ-TuCs nucleating within 10 min), mCherry–CDK5RAP2 pre-incubated with γ-TuCs in assay [4] amounted to 35%.

Turning to “chTOG–mCherry (from UniProt Q14008 1-2032) (natural protein)”, the results for the percent of chTOG-positive puncta colocalizing with γ-TuC in [1] and in [3] were 6% and 28%, respectively.

As to “SNAP–AF647–CAMSAP1 (from UniProt Q5T5Y3 1-1602) (natural protein)”, in assay [5], the γ-TuC displacement frequency (microtubules released among γ-TuC-anchored minus ends colocalizing with the CAMSAP) turned out to be 5%. Further, the percent of γ-TuC-nucleated microtubules with CAMSAP at the minus end in assay [6] was found to be 25%.

B1: mCherry–CAMSAP2 (natural protein)
chain: MGDAADPREMRKTFIVPAIKPFDHYDFSRAKIACNLAWLVAKAFGTENVPEELQEPFYTDQYDQEHIKPPVVNLLLSAELYCRAGSLILKSDAAKPLLGHDAVIQALAQKGLYVTDQEKLVTERDLHKKPIQMSAHLAMIDTLMMAYTVEMVSIEKVIACAQQYSAFFQATDLPYDIEDAVMYWINKVNEHLKDIMEQEQKLKEHHTVEAPGGQKSPSKWFWKLVPARYRKEQTLLKQLPCIPLVENLLKDGTDGCALAALIHFYCPDVVRLEDICLKETMSLADSLYNLQLIQEFCQEYLNQCCHFTLEDMLYAASSIKSNYLVFMAELFWWFEVVKPSFVQPRVVRPQGAEPVKDMPSIPVLNAAKRNVLDSSSDFPSSGEGATFTQSHHHLPSRYSRPQAHSSASGGIRRSSSMSYVDGFIGTWPKEKRSSVHGVSFDISFDKEDSVQRSTPNRGITRSISNEGLTLNNSHVSKHIRKNLSFKPINGEEEAESIEEELNIDSHSDLKSCVPLNTNELNSNENIHYKLPNGALQNRILLDEFGNQIETPSIEEALQIIHDTEKSPHTPQPDQIANGFFLHSQEMSILNSNIKLNQSSPDNVTDTKGALSPITDNTEVDTGIHVPSEDIPETMDEDSSLRDYTVSLDSDMDDASKFLQDYDIRTGNTREALSPCPSTVSTKSQPGSSASSSSGVKMTSFAEQKFRKLNHTDGKSSGSSSQKTTPEGSELNIPHVVAWAQIPEETGLPQGRDTTQLLASEMVHLRMKLEEKRRAIEAQKKKMEAAFTKQRQKMGRTAFLTVVKKKGDGISPLREEAAGAEDEKVYTDRAKEKESQKTDGQRSKSLADIKESMENPQAKWLKSPTTPIDPEKQWNLASPSEETLNEGEILEYTKSIEKLNSSLHFLQQEMQRLSLQQEMLMQMREQQSWVISPPQPSPQKQIRDFKPSKQAGLSSAIAPFSSDSPRPTHPSPQSSNRKSASFSVKSQRTPRPNELKITPLNRTLTPPRSVDSLPRLRRFSPSQVPIQTRSFVCFGDDGEPQLKESKPKEEVKKEELESKGTLEQRGHNPEEKEIKPFESTVSEVLSLPVTETVCLTPNEDQLNQPTEPPPKPVFPPTAPKNVNLIEVSLSDLKPPEKADVPVEKYDGESDKEQFDDDQKVCCGFFFKDDQKAENDMAMKRAALLEKRLRREKETQLRKQQLEAEMEHKKEETRRKTEEERQKKEDERARREFIRQEYMRRKQLKLMEDMDTVIKPRPQVVKQKKQRPKSIHRDHIESPKTPIKGPPVSSLSLASLNTGDNESVHSGKRTPRSESVEGFLSPSRCGSRNGEKDWENASTTSSVASGTEYTGPKLYKEPSAKSNKHIIQNALAHCCLAGKVNEGQKKKILEEMEKSDANNFLILFRDSGCQFRSLYTYCPETEEINKLTGIGPKSITKKMIEGLYKYNSDRKQFSHIPAKTLSASVDAITIHSHLWQTKRPVTPKKLLPTKA
Turning to B1, the γ-TuC displacement frequency (microtubules released among γ-TuC-anchored minus ends colocalizing with the CAMSAP) in [5] is 90%. For the same molecule, in [7], the percent of γ-TuC-nucleated microtubules with CAMSAP at the minus end was found to be 15%.

B2: mCherry–CLASP2 (natural protein)
chain: MAMGDDKSFDDEESVDGNRPSSAASAFKVPAPKTSGNPANSARKPGSAGGPKVGGASKEGGAGAVDEDDFIKAFTDVPSIQIYSSRELEETLNKIREILSDDKHDWDQRANALKKIRSLLVAGAAQYDCFFQHLRLLDGALKLSAKDLRSQVVREACITVAHLSTVLGNKFDHGAEAIVPTLFNLVPNSAKVMATSGCAAIRFIIRHTHVPRLIPLITSNCTSKSVPVRRRSFEFLDLLLQEWQTHSLERHAAVLVETIKKGIHDADAEARVEARKTYMGLRNHFPGEAETLYNSLEPSYQKSLQTYLKSSGSVASLPQSDRSSSSSQESLNRPFSSKWSTANPSTVAGRVSAGSSKASSLPGSLQRSRSDIDVNAAAGAKAHHAAGQSVRSGRLGAGALNAGSYASLEDTSDKLDGTASEDGRVRAKLSAPLAGMGNAKADSRGRSRTKMVSQSQPGSRSGSPGRVLTTTALSTVSSGVQRVLVNSASAQKRSKIPRSQGCSREASPSRLSVARSSRIPRPSVSQGCSREASRESSRDTSPVRSFQPLASRHHSRSTGALYAPEVYGASGPGYGISQSSRLSSSVSAMRVLNTGSDVEEAVADALKKPARRRYESYGMHSDDDANSDASSACSERSYSSRNGSIPTYMRQTEDVAEVLNRCASSNWSERKEGLLGLQNLLKNQRTLSRVELKRLCEIFTRMFADPHGKRVFSMFLETLVDFIQVHKDDLQDWLFVLLTQLLKKMGADLLGSVQAKVQKALDVTRESFPNDLQFNILMRFTVDQTQTPSLKVKVAILKYIETLAKQMDPGDFINSSETRLAVSRVITWTTEPKSSDVRKAAQSVLISLFELNTPEFTMLLGALPKTFQDGATKLLHNHLRNTGNGTQSSMGSPLTRPTPRSPANWSSPLTSPTNTSQNTLSPSAFDYDTENMNSEDIYSSLRGVTEAIQNFSFRSQEDMNEPLKRDSKKDDGDSMCGGPGMSDPRAGGDATDSSQTALDNKASLLHSMPTHSSPRSRDYNPYNYSDSISPFNKSALKEAMFDDDADQFPDDLSLDHSDLVAELLKELSNHNERVEERKIALYELMKLTQEESFSVWDEHFKTILLLLLETLGDKEPTIRALALKVLREILRHQPARFKNYAELTVMKTLEAHKDPHKEVVRSAEEAASVLATSISPEQCIKVLCPIIQTADYPINLAAIKMQTKVIERVSKETLNLLLPEIMPGLIQGYDNSESSVRKACVFCLVAVHAVIGDELKPHLSQLTGSKMKLLNLYIKRAQTGSGGADPTTDVSGQS
B2: the percent colocalization with γ-TuC in assay [8] and in [9] was 72% in each case.
